# Experimental data: US10577428B2, “Anti-factor XI monoclonal antibodies and methods of use thereof” (Oregon Health & Science University, priority 2007, dated 2020)
# Read-outs that look alike come from different tables or passages of the source.
# B1: aXIMab: neutralizing murine IgG/kappa anti-human FXI monoclonal antibody from hybridoma 1A6; binds A3 domain; VH SEQ ID NO:3, VL SEQ ID NO:5 (antibody, listed as Mus musculus, V domains shown)
# VH: QVTLKESGPGILKPSQTLSLTCSFSGFSLSTSGMGVGWIRQPSGKGLEWLAHIWWDDDKYYNPSLKSQLTISKDTSRNQVFLKITSVDAADTATYYCARKRSSVVAHYYAMDYWGQGTSVTVSS
# VL: DIVLTQSPASLAVSLGQRATISCKASQSVDYDGDSYLNWYQQKPGQPPKLLIYAASNLESGIPARFSGSGSGTDFTLNIHPVEEEDAATYYCQQSNGDPWTFGGGTKLEIK
# Experiments:
# FXI = assay: Pilot experiment: FXI:Ag, FXI inhibitor and FXI procoagulant activity after aXIMab in a single baboon; assay type: in vivo
# Experimental: The maximum achievable prolongation of the aPTT was about 2.5 fold. FXI:Ag was measured by ELISA using goat anti-human FXI polyclonal capture and detection (horseradish peroxidase conjugated [HRP]) antibodies (Affinity Biologicals, Hamilton, Ontario), which also recognized baboon FXI and its complex with aXIMab. A standard curve was constructed with serial dilutions of NBP, and FXI concentrations were determined in percentage of NBP. Western blots for FXI were performed by size fractionation of 1 μl samples of plasma under non-reducing conditions on 7.5% polyacrylamide-SDS gels, followed by transfer to PVDF membranes. Detection was with a goat-anti-human FXI polyclonal antibody conjugated to HRP and chemiluminescence.
# baboon FXI in plasma = assay: Western blot of baboon / non-human primate plasma; assay type: binding
# From the text: Results from a Western Blot study corroborating that anti-factor XI monoclonal antibody 1A6 recognizes Factor XI in human and non-human primate plasma is shown in FIG. 7A.
# baboons = assay: Observation for adverse reactions and bleeding events; assay type: in vivo, baboon
molecule,measurement,setting,value
B1,FXI:Ag levels,"FXI; 1 h after 2 mg/kg, single baboon, baseline 110%",40 % of NBP levels
same,FXI activity,"FXI; 1 h after 2 mg/kg, single baboon, baseline 125%",< 1%
same,Maximum circulating FXI inhibitor levels (Bethesda assay),"FXI; 1 h post infusion, 2 mg/kg, single baboon",72 Bethesda units [BU]
same,circulating FXI inhibitor levels (Bethesda assay),"FXI; by day 15, 2 mg/kg, single baboon",< 0.6 BU
same,FXI:Ag levels,"FXI; day 8 post-infusion, 2 mg/kg, single baboon",300 % of control
same,FXI activity,"FXI; day 27, 2 mg/kg, single baboon",136%
same,Plasma FXI antigen,"FXI; day 27, 2 mg/kg, single baboon",130%
same,total FXI:Ag levels,FXI; following the disappearance of FXI activity,temporarily increased several-fold above baseline
same,FXI activity inhibited,"FXI; for 10 days after administration, 2 mg/kg, single baboon",> 99%
same,free FXI:Ag,FXI; for over a week following injection,< 1%
same,maximum achievable prolongation of the aPTT,FXI; in vivo,about 2.5 fold
same,Plasma FXI antigen,"FXI; through day 15, 2 mg/kg, single baboon",above 200 % of control
same,recognition of FXI on Western blot,baboon FXI in plasma,single band at 160 kDa
same,recognition of FXI on Western blot,baboon FXI in plasma; listed as 1A6,recognizes
same,adverse reactions to the antibody,"baboons; 2 mg/kg i.v. bolus, 4 baboons",No adverse reactions
same,adverse bleeding events,baboons; one week follow-up periods of observation,"No re-bleeding phenomena, petechiae, hematomas or other adverse bleeding events"
